Bridges are numbered along the chain shown (N, C = ends). BDB = bisdiazonium-benzidine, coupling agent to KLH; Gluta = glutaraldehyde, coupling agent to KLH
Experiments:
[1] = target: T1, hIL-6 (Homo sapiens, UniProt P05231); test: Human IL-6 neutralization test on HEK293 cells (hIL-6 receptor, SEAP reporter) with purified IgGs from immunized rabbits; type: cell-based; details: purified IgGs from rabbits immunized with 100 μg of the peptide
Procedure: New Zealand rabbits free from specific pathogenic organisms (n=1 per peptide) were immunized with 100 μg of peptides hP1, hP2, hP3, hP4 and hP6 derived from human IL-6 by five immunizations with CFA/IFA on D0, D14, D28, D56 and J70. The neutralizing ability of the purified IgGs, derived from the serum of each rabbit, was tested in a human IL-6 neutralization test. This test is carried out on HEK293 cells (Human Embryonic Kidney cells) transfected with the gene encoding the human IL-6 receptor and the secreted embryonic alkaline phosphatase (SEAP) reporter gene (Supplier: Invivogen). The latter is then secreted in a dose-dependent manner in response to the human IL-6.
Plating (D0): seed a flat-bottom 96-well plate, treated for cell culture with 50,000 cells per well in 100 μL of neutralization medium. (DMEM 4.5 g/L glucose, 10% v/v FCS, 2 mM L-Glutamine, 100 U/mL Penicillin/Streptomycin, 100 μg/mL of Normocin).
In parallel a so-called “pre-incubation” plate is prepared with the desired concentration of human IL-6, rabbit antibodies and commercial anti-hIL-6 antibodies used as a positive control, all in a final volume of 200 μL of neutralization medium.
The pre-incubation plate is left at 37° C. for 2 hours. 100 μL per well is then transferred to the corresponding wells of the plate containing the cells, then the latter is incubated with 5% CO2 at 37° C. for 24 hours.
Development (D1): Fill a flat-bottom 96-well plate with 180 μL per well of QUANTI-Blue (InVivoGen, CA, USA). Add 20 μL of supernatant from the plate treated with IL-6. Incubate with 5% CO2 at 37° C. for 3 hours. Determine the quantity of secreted alkaline phosphatase using a spectrophotometer set at 620 nm.

[2] = system: C57BL/6 mice; test: Murine model of chronic colitis induced by DSS after vaccination; type: in vivo; details: for histological colitis score: D67 colon distal biopsies, compared with control mice treated with PBS or KLH alone, FIG. 3; for disease activity index (DAI) / reduction of the length of the colon: DSS-treated C57BL/6 mice; for disease activity index (DAI): 100 μg peptide coupled with KLH, compared with the control groups, FIG. 2; for reduction of the length of the colon: compared with control mice, FIG. 4
Source text: Chronic colitis induced by Dextran Sodium Sulfate (DSS) is a well-known model of chronic inflammatory disease reproducing the main characteristics of the human diseases (Alex et al. (2009) Inflamm. Bowel Dis. 15:341-352).
Briefly, groups of 6 C57BL/6 mice (Charles River Laboratories, L'Arbresle, France) were formed. The mice were immunized 4 times (once with CFA and three times with IFA) every 15 days with different vaccine preparations. The mice were respectively immunized with PBS (DSS/PBS group), 50 μg per mouse of KLH (DSS/KLH group), and 100 μg per mouse of peptide mP1, mP2, mP3, mP4, mP5 and mP6 coupled with KLH (DSS/mIL-6 peptide group). A control H2O group was also included. Four days after the first booster, colitis was induced by absorption of Dextran Sodium Sulfate (DSS) in water (2%) over 7 days followed by 7 days of water. Three DSS/water cycles were thus carried out, after which the mice received water until the end of the protocol. The clinical signs of the disease appear approximately on the fifth day after the start of treatment with DSS (D26 of the protocol). The development of the disease is measured from the start of the first DSS cycle up to the end of the protocol by a disease activity index (DAI) including weight loss, the presence of blood in the stools and the texture of the stools. The clinical scores are determined as follows: for the texture of the stools a score of 0 (hard stools) to 4 (diarrhoea), for the presence of blood in the stools a score of 0 (absence) to 4 (macroscopic blood), and weight loss a score of 0 (<1%) to 4 (>20%). Each mouse is thus assigned a clinical score with a maximum score of 12.
Then, on D67, the mice are killed by cervical dislocation. The histological sections from colon distal biopsies are scored blind, according to the severity of the inflammation (0: absence, 1: slight, 2: moderate, 3: severe), the extent of the inflammation (0: absence, 1: mucosal, 2: mucosal and sub-mucosal, 3: transmural), crypt damage (0: absence, 1: one-third damaged, 2: ⅔ damaged, 3: only the surface of the epithelium intact, 4: total destruction of the crypts and epithelium). Each mouse is thus assigned a histological score with a maximum score of 10.

[3] = target: T2, murine IL-6 (Mus musculus, UniProt P08505); test: Murine IL-6 neutralization test on murine B9 hybridomas with purified IgGs from immunized rabbits; type: cell-based; details: purified IgGs from rabbits immunized with the peptide; B9 hybridoma proliferation, XTT
T2 sequence (P08505 25-211): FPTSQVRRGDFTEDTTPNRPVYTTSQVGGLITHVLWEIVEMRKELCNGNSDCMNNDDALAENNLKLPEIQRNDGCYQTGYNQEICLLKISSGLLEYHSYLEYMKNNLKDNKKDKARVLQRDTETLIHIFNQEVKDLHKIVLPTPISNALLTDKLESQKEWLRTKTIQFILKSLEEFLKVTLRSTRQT
Procedure: The neutralizing ability of purified IgGs based on serum from rabbits immunized with the peptides mP1, mP2, mP3, mP4, mP5 and mP6 respectively, was tested in a murine IL-6 neutralization test. This test is based on the fact that murine B9 hybridomas proliferate in a dose-dependent manner in response to murine IL-6 (Brakenhoff et al. (1987) J. Immunol. 139:4116-21).
Plating (D0): seed a flat-bottom 96-well plate, treated for cell culture with 5000 cells per well in 50 μL of neutralization medium. (RPMI 1640 without phenol red, 5% v/v Foetal Calf Serum (FCS), 2 mM L-Glutamine, 100 U/mL Penicillin/Streptomycin, […] of β-Mercaptoethanol)
In parallel a so-called “pre-incubation” plate is produced with the desired concentration of murine IL-6, samples and commercial anti-mIL-6 antibodies used as positive control, all in a final volume of 100 μL of neutralization medium.
The pre-incubation plate is left at 37° C. for 2 hours. 50 μL per well is then transferred to the corresponding wells of the plate containing the cells, then the latter is incubated with 5% CO2 at 37° C. for 96 hours.
Development (D4): Add 50 μL of a solution of XTT (for 2,3-bis-(2-methoxy-4-nitro-5-sulfophenyl)-2H-tetrazolium-5-carboxanilide)—0.5% electron coupling reagent to each well. Leave to incubate at 37° C. for 7 hours. Reading of the optical density on a spectrophotometer set at 450 nm.

[4] = target: T3, IL-6Rα receptor (Homo sapiens, UniProt P08887); details: adults; cited from earlier work
T3 sequence (P08887 20-468): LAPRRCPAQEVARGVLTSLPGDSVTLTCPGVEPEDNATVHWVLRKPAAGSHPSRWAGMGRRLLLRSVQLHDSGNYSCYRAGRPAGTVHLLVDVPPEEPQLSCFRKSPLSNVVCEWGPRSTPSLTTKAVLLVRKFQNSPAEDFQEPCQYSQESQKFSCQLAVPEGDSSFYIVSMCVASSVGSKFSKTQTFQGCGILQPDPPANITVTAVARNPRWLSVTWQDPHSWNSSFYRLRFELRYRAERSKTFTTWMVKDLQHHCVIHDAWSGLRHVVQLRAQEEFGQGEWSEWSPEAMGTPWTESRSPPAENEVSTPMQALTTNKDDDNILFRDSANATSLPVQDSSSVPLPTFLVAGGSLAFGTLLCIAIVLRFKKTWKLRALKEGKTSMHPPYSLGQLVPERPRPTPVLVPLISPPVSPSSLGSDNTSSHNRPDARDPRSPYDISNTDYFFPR

[5] = system: Cynomolgus monkeys; test: Delayed-type hypersensitivity against tetanus toxoid in immunized Cynomolgus monkeys; type: in vivo, Cynomolgus monkey; details: tetanus toxoid challenge at d90, compared to the KLH group, FIG. 8
Procedure: Briefly, the TTx vaccine (Sanofi-Pasteur, solution of 0.5 ml comprising 40 IU of Tetanus Toxoid and 0.6 mg of aluminium hydroxide) was administered intramuscularly at d59 in the thigh. Then an intradermic challenge was performed at d90 in two injection sites in the back of the monkey.
Clinical features of the cutaneous reaction were evaluated once a day for each animal before the challenge and then 24 h, 48 h and 72 h after the challenge. Each injection site was monitored for the incidence, grade and duration of three parameters (erythema, thickening, nodules) and a cumulative clinical score of delayed-type hypersensitivity (DTH) comprising these three parameters was established for each group.

[6] = target: T1, hIL-6; test: ELISA of sera from Cynomolgus monkeys immunized with hP2 for anti hIL-6 antibodies; type: in vivo, Cynomolgus monkey
Procedure: Four Cynomolgus monkeys were immunized intra-muscularly at day 0 with 150 μg of the cyclized hP2 peptide derived from hIL-6 previously described coupled to the protein carrier KLH, and then emulsified with the ISA51 adjuvant (Seppic).
Boosts were performed at d15, d30, d45 with an additional boost at d76. Blood samples were collected every two weeks until the end of the experiment (d120). These sera were tested in ELISA to evaluate the production of anti hIL-6 antibodies. A control group of four monkeys immunized with KLH only was used.

T1 sequence (P05231 30-212): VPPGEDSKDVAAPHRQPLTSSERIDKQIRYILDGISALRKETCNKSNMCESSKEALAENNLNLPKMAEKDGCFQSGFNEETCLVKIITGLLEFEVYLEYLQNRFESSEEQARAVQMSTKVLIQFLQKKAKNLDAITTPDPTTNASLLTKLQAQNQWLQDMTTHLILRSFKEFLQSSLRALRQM

| Substance | neutralization of the biological activity of human IL-6 [1] | histological colitis score [2] | disease activity index (DAI) [2] | reduction of the length of the colon [2] | neutralization of the biological activity of murine IL-6 [3] | other results |
| --- | --- | --- | --- | --- | --- | --- |
| BDB-Y-G63ISALRKETCNKSNMC78+Amide ({BDB}-YGISALRKETCNKSNMC-NH2; disulfide 11-17 (inferred)) [hP1, peptide derived from hIL-6 region 63-78] | neutralize the biological activity of the human IL-6 in a dose-dependent manner | – | – | – | – | – |
| BDB-Y-CE125FMKNNLKDNKKDKAR140C+Amide [mP4] | – | significantly reduced histological score | significantly reduced disease activity index | significantly less severe reduction of the colon | neutralize the biological activity of murine IL-6 in a dose-dependent manner | – |
| Gluta-C101FQSGFNEETC111 +Amide (Gluta-CFQSGFNEETC-NH2; disulfide 1-11 (inferred)) [hP3, peptide derived from hIL-6 region 101-111] | neutralize the biological activity of the human IL-6 in a dose-dependent manner | – | – | – | – | – |
| Gluta-C99YQTGYNQEIC109+Amide (Gluta-CYQTGYNQEIC-NH2; disulfide 1-11 (inferred)) [mP3, peptide derived from mIL-6 region 99-109] | – | significantly reduced histological score | significantly reduced disease activity index | significantly less severe reduction of the colon | neutralize the biological activity of murine IL-6 in a dose-dependent manner | – |
| Tocilizumab: humanized monoclonal antibody directed against the IL-6Rα receptor | – | – | – | – | – | clinical effectiveness in rheumatoid arthritis [4]: clinically effective |
| Acetyl+CN154QEVKDLHKIVLPTP168C-Y-BDB [mP5] | – | – | – | – | do not neutralize the activity of murine IL-6 | – |
| Acetyl +T177KCQAQNQWLQDM189C-Y-BDB (Ac-TKCQAQNQWLQDMCY-{BDB}; disulfide 3-14 (inferred)) [hP6, peptide derived from hIL-6 region 177-189] | neutralize the biological activity of the human IL-6 in a dose-dependent manner | – | – | – | – | – |
| BDB-Y-CE127FLQNRFESSEEQAR141C+ Amide ({BDB}-YCEFLQNRFESSEEQARC-NH2; disulfide 2-18 (inferred)) [hP4, peptide derived from hIL-6 region 127-141] | neutralize the biological activity of the human IL-6 in a dose-dependent manner | – | – | – | – | – |
| Acetyl+C78ESSKEALAENNLNLPK94C-Y-BDB (Ac-CESSKEALAENNLNLPKCY-{BDB}; disulfide 1-18 (inferred); also: coupled to KLH via BDB) [hP2, peptide derived from hIL-6 region 78-94] | neutralize the biological activity of the human IL-6 in a dose-dependent manner | – | – | – | – | DTH response (cumulative clinical score) [5]: marked attenuation of the DTH response; peak of anti-hIL-6 antibody titer kinetics ([6]; Cynomolgus monkeys immunized with hP2, in average): ~60 days; development of antibodies against hIL-6 (ELISA) ([6]; four Cynomolgus monkeys, 150 μg cyclized hP2 coupled to KLH in ISA51 i.m., FIG. 7): developed antibodies against hIL-6 |
| BDB-Y-E61IVEMRKELCNGNSD75C+Amide ({BDB}-YEIVEMRKELCNGNSDC-NH2; disulfide 11-17 (inferred)) [mP1, peptide derived from mIL-6 region 61-75] | – | significantly reduced histological score | significantly reduced disease activity index | significantly less severe reduction of the colon | neutralize the biological activity of murine IL-6 in a dose-dependent manner | – |
| Acetyl+D176KCESQKEWLRTK188C-Y-BDB [mP6] | – | significantly reduced histological score | significantly reduced disease activity index | significantly less severe reduction of the colon | neutralize the biological activity of murine IL-6 in a dose-dependent manner | – |
